From patent US20130064833A1

Biological target: hepatocyte growth factor receptor (HGFR) (UniProt P08581)
Test: cell-based or functional assay

Chain of UniProt P08581 (P08581 25-1390 limits assumed): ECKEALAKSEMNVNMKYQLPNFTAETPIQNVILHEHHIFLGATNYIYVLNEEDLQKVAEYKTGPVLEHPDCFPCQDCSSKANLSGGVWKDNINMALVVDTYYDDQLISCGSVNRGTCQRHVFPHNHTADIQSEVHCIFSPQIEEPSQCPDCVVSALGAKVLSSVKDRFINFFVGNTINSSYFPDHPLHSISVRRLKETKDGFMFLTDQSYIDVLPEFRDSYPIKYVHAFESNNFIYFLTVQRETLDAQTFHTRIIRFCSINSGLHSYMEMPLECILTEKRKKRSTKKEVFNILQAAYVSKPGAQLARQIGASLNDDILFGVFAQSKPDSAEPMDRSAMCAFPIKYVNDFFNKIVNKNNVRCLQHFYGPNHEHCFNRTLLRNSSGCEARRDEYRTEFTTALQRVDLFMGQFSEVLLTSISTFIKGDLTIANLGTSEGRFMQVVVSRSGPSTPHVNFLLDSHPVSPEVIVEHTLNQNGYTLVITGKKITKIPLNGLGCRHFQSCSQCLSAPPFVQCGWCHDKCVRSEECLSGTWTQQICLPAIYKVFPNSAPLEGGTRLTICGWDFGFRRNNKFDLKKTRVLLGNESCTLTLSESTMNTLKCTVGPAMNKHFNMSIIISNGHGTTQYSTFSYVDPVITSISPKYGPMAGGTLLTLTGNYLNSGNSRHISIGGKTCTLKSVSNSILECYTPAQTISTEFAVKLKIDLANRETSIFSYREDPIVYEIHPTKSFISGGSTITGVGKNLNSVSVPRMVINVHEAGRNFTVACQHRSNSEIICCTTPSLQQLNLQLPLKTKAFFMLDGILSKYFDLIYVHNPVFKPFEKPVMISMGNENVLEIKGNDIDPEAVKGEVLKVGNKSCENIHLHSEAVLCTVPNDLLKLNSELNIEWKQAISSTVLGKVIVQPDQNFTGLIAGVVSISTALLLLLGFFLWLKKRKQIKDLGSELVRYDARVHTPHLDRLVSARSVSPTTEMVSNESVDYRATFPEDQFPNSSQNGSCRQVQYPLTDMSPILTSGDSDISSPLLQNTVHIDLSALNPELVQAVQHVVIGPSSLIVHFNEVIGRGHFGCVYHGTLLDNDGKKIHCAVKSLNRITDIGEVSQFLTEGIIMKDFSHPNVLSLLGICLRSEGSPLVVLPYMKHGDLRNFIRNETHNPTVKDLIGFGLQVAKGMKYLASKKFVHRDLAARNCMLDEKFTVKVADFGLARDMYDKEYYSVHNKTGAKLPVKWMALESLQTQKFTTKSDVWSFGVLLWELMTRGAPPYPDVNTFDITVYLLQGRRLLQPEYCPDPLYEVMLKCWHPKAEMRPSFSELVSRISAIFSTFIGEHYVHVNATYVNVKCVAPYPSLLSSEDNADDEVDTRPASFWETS

LEC proliferation, minimal effective concentration: 1 ng/mL
Substance: hepatocyte growth factor (HGF) (ligand)
